Key:
AncSZ = experiment: phosphorylation enrichment, bacterial display (enrichment ratio); higher = better substrate or ligand; peptides without Tyr show the background
EPHB1 = EPHB1 (UniProt P54762); experiment: as above
EPHB2 = EPHB2 (UniProt P29323); experiment: as above
FGFR1 = FGFR1 (UniProt P11362); experiment: as above
FGFR3 = FGFR3 (UniProt P22607); experiment: as above
Fer (mouse) = experiment: as above
Fes = Fes (UniProt P07332); experiment: as above
Fyn = Fyn (UniProt P06241); experiment: as above
Chain of Fyn (P06241 whole entry, looked up): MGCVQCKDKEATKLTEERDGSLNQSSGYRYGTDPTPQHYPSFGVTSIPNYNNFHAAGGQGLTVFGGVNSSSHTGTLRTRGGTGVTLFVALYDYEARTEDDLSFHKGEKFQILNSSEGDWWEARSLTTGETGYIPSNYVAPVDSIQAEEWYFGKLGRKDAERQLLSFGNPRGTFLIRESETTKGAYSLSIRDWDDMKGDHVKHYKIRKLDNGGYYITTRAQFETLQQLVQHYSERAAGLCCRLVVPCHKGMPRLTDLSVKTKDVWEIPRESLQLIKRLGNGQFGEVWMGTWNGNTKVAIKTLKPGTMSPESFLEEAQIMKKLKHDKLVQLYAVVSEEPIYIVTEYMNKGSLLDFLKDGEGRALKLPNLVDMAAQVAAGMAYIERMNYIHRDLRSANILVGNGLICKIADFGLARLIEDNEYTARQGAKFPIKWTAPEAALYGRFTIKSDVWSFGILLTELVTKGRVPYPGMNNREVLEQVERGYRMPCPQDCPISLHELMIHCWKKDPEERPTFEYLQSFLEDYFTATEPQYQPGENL

Hck = Hck (UniProt P08631); experiment: as above
Chain of Hck (P08631 whole entry, looked up): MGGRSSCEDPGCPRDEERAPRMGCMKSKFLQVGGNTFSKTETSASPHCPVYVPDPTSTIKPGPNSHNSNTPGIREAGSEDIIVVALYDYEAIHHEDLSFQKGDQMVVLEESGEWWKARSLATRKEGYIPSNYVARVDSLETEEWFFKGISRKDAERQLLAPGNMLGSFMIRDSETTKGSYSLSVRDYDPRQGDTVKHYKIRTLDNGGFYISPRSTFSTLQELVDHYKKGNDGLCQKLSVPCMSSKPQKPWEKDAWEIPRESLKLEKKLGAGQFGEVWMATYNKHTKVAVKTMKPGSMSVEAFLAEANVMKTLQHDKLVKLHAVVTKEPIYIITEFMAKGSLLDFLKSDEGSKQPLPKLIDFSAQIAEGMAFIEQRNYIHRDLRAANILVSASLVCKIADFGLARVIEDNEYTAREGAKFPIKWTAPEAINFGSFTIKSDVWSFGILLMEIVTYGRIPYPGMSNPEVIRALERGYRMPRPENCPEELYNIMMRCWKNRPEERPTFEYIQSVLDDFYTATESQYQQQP

Jak2 = Jak2 (UniProt O60674); experiment: as above
MERTK = MERTK (UniProt Q12866); experiment: as above
Chain of MERTK (Q12866 whole entry, looked up): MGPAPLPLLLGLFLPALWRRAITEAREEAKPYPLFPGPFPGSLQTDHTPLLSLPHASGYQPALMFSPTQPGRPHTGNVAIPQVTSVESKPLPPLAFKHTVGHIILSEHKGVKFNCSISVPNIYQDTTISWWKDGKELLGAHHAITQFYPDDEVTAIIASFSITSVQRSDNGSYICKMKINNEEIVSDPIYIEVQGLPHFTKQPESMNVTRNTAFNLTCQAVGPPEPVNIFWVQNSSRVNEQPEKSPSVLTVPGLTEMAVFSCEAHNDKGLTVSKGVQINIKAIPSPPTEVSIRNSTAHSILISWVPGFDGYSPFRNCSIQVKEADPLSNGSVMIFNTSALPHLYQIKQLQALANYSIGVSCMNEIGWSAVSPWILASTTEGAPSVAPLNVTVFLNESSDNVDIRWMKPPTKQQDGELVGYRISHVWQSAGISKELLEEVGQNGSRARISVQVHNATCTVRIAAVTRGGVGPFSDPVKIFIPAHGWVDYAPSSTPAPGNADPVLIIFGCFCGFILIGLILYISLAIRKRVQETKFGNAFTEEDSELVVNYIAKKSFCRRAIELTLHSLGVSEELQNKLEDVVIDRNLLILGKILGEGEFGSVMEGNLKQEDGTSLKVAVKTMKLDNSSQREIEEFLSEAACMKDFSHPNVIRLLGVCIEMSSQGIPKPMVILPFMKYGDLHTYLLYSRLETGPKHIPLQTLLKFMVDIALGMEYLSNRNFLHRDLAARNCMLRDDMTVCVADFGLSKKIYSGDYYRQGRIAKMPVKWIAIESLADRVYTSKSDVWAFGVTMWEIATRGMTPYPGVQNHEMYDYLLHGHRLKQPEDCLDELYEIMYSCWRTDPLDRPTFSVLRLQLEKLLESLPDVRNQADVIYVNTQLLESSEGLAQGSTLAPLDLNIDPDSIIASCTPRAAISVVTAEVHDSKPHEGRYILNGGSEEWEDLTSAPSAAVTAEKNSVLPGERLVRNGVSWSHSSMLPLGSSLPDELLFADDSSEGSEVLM

c-Abl (mouse) = experiment: as above
c-Src = experiment: as above
Grb2 SH2 = Grb2 SH2 (UniProt P62993); experiment: SH2 binding enrichment of the phosphorylated peptide, bacterial display (enrichment ratio); higher = better substrate or ligand; peptides without Tyr show the background
Chain of Grb2 SH2 (P62993 whole entry, looked up): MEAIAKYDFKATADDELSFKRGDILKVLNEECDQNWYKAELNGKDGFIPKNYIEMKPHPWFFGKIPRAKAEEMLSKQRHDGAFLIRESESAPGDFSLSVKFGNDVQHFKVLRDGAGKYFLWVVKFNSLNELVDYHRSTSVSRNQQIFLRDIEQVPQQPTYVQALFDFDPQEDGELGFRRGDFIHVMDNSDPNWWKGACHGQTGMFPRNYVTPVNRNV

SHP2-C SH2 = experiment: as above
c-Src SH2 = experiment: as above
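Wherever SH2 binding enrichment of the phosphorylated peptide, bacterial display is given: peptide library displayed on the E. coli surface as eCPX fusions, selected cells deep-sequenced, score is each peptide's frequency after selection divided by its frequency in the input.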
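Wherever phosphorylation enrichment, bacterial display is given: 11-residue human phosphosite peptides and single-mutation variants displayed on the E. coli surface, counted by deep sequencing, each peptide's frequency after selection divided by its frequency in the unselected input library; frequency after pTyr selection over input frequency; kinase dosed for 20-30% of maximal phosphorylation in three min.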

Chain of EPHB1 (P54762 whole entry, looked up): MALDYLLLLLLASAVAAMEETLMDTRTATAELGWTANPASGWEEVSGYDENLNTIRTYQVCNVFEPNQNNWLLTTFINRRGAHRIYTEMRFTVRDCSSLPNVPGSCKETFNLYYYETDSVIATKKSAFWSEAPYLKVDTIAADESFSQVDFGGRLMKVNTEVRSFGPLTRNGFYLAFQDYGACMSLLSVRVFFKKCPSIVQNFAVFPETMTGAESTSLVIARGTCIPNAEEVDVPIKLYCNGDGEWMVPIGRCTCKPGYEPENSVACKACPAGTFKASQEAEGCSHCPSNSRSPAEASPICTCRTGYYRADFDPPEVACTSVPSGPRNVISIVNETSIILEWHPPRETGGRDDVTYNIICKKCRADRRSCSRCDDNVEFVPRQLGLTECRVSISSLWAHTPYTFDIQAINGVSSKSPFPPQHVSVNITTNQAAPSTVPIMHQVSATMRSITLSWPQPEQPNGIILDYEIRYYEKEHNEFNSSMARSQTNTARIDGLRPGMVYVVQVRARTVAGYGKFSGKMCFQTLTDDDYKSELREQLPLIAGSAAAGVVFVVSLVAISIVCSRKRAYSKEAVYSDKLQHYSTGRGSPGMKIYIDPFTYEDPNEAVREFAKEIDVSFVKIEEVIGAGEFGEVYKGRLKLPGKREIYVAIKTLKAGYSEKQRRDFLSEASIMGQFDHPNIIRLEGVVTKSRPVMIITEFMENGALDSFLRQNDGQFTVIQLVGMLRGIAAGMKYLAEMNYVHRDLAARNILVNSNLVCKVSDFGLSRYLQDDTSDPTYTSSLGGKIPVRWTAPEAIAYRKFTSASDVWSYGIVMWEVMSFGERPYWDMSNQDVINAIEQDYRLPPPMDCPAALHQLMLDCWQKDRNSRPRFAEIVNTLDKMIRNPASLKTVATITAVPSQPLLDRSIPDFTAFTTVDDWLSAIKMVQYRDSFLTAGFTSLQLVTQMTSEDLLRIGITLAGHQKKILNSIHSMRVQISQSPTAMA
Chain of Fes (P07332 whole entry, looked up): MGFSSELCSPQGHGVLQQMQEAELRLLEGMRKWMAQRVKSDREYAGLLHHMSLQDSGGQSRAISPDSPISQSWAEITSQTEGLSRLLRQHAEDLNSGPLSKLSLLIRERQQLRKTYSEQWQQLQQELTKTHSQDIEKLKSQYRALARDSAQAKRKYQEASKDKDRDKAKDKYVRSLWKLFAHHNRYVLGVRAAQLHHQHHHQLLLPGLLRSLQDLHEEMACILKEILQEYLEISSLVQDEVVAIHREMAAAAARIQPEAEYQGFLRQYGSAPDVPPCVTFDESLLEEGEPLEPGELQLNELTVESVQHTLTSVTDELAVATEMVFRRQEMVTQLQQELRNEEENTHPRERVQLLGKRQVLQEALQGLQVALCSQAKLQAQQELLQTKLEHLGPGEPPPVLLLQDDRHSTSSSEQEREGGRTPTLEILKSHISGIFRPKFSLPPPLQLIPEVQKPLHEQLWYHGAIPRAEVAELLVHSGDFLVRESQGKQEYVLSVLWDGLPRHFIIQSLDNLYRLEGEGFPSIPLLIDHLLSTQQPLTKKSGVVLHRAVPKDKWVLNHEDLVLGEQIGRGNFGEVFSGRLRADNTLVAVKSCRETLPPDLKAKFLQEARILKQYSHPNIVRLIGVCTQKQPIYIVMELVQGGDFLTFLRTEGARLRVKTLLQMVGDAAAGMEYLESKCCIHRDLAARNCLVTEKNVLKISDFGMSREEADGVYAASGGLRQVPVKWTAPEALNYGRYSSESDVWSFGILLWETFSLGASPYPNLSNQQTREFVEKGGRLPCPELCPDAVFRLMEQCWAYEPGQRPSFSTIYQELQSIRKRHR
Chain of FGFR1 (P11362 whole entry, looked up): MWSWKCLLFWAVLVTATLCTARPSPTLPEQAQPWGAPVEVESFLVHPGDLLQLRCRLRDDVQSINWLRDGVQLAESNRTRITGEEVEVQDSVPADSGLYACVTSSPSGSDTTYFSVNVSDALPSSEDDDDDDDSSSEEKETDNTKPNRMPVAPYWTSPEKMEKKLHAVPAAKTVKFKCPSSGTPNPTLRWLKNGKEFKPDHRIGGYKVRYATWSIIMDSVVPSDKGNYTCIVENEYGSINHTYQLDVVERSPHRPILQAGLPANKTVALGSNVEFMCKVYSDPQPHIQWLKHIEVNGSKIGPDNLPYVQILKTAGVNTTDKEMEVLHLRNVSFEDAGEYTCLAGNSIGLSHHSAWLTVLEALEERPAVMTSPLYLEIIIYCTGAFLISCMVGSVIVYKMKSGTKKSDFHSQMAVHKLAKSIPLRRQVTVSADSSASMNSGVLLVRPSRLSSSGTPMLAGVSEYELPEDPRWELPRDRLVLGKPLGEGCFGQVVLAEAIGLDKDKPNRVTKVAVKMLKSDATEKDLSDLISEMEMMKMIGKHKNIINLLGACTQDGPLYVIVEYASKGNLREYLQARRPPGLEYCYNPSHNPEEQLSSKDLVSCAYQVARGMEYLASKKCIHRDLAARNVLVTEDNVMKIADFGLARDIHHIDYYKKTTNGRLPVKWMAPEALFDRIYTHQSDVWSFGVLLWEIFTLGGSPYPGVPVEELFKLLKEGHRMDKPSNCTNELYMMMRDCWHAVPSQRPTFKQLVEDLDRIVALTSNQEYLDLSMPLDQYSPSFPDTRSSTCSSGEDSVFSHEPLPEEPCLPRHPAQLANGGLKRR

Sequence	phosphorylation enrichment (AncSZ)	phosphorylation enrichment (EPHB1)	phosphorylation enrichment (EPHB2)	phosphorylation enrichment (FGFR1)	phosphorylation enrichment (FGFR3)	phosphorylation enrichment (Fer (mouse))	phosphorylation enrichment (Fes)	phosphorylation enrichment (Fyn)	phosphorylation enrichment (Hck)	phosphorylation enrichment (Jak2)	phosphorylation enrichment (MERTK)	phosphorylation enrichment (c-Abl (mouse))	phosphorylation enrichment (c-Src)	SH2 binding enrichment (Grb2 SH2)	SH2 binding enrichment (SHP2-C SH2)	SH2 binding enrichment (c-Src SH2)
RRIYSYRGHLW [VHL_Y112_H110Y]	1.45	1.17	0.659	1.2	0.725	1.02	1.68	0.986	0.667	0.691	1.24	0.776	1.26	0.774	0.465	0.501
GVYSRYFTTYD [CLCA1_Y661]	1.35	1.12	1.25	0.571	0.729	0.573	1	4.58	3.33	1.07	3.71	0.955	4.77	0.944	1.27	1.06
GEDEPYAEPFA [APBA1_Y183_S184A_YF]	1.43	0.584	0.571	0.607	0.872	0.569	1.21	0.462	0.593	1.47	0.547	0.814	0.649	1.08	0.652	0.636
KNKKDYFDMFE [SLC26A3_Y526_YF]	0.864	0.779	0.585	3.49	2.62	0.418	0.909	0.453	0.444	0.706	0.568	0.882	0.524	0.979	1.01	0.595
TEAEPYFRSLR [NPHS1_Y1138_YF]	0.852	0.448	0.519	0.399	0.639	0.494	0.953	0.557	0.511	0.843	0.447	0.758	0.477	0.938	1.02	0.571
SKDQICPMKLK [RANBP17_Y823_Y823C]	0.825	0.385	0.565	0.595	0.643	0.614	0.781	0.599	0.573	0.746	0.553	0.632	0.505	1.08	0.586	0.744
GHRPVYSEDEQ [CHST6_Y362_Y358H]	1.05	0.429	0.523	0.495	0.707	0.501	1.13	0.474	0.564	0.894	0.437	0.757	0.48	1.1	0.736	0.641
REVPVYTYSEP [FAM120B_Y368_D370Y]	3.86	3.19	2.33	1.56	1.81	12.9	1.82	9.05	4.16	1.13	5.36	1.97	5.2	0.853	0.614	3.29
AISEGYKDFRA [CDA_Y79_V75I]	0.617	0.353	0.415	0.425	0.524	0.313	0.638	0.323	0.405	0.617	0.382	0.622	0.499	0.829	0.536	0.31
SVTCTNSPALN [TP53_Y126_Y126N]	0.907	0.586	0.483	0.491	0.699	0.588	1.24	0.495	0.447	1.08	0.487	0.762	0.504	0.659	0.65	0.385
KNEVLYDGENH [ARFGEF1_Y314]	0.943	0.403	0.525	0.399	0.475	0.401	0.836	0.422	0.436	0.763	0.398	0.668	0.418	0.978	0.687	0.665
FLAVGYHKPYI [IDS_Y225_H229Y]	0.654	0.591	0.441	0.446	0.512	0.554	1.16	0.46	0.399	1.02	0.441	1.16	0.348	0.98	1.14	1.51
QKMADYSNKLF [PDPR_Y104_YF]	1.16	0.662	0.647	0.741	0.586	0.362	1.41	0.683	0.554	1.41	0.788	1.26	0.81	1.03	0.945	0.385
TVETKYDNISR [SETDB2_Y477]	0.72	0.71	0.379	0.545	0.553	0.433	0.745	0.519	0.477	0.667	0.393	0.643	0.461	0.959	0.769	3.03
FSAPNYCFRCG [PPP2CA_Y265_YF]	0.661	0.397	0.448	0.474	0.486	0.415	0.674	0.349	0.374	0.511	0.393	0.416	0.343	1.24	0.702	0.763
RGDTVYTVNCM [KBTBD13_Y404_R408C]	0.937	0.692	0.636	0.479	0.686	0.547	1.08	3.11	1.21	0.844	0.734	0.697	2.45	0.752	0.793	0.475
LKFAIYFEARE [LAMA2_Y1258_YF]	1.45	1.78	0.983	1.41	2.05	0.884	2.6	1.29	0.736	1.1	0.845	1.06	0.345	1.08	0.756	0.352

Sequence	phosphorylation enrichment (AncSZ)	phosphorylation enrichment (EPHB1)	phosphorylation enrichment (EPHB2)	phosphorylation enrichment (FGFR1)	phosphorylation enrichment (FGFR3)	phosphorylation enrichment (Fer (mouse))	phosphorylation enrichment (Fes)	phosphorylation enrichment (Fyn)	phosphorylation enrichment (Hck)	phosphorylation enrichment (Jak2)	phosphorylation enrichment (MERTK)	phosphorylation enrichment (c-Abl (mouse))	phosphorylation enrichment (c-Src)	SH2 binding enrichment (Grb2 SH2)	SH2 binding enrichment (SHP2-C SH2)	SH2 binding enrichment (c-Src SH2)
PLLEYYWDIFT [CDAN1_Y713_R714W]	2.64	2.64	1.28	8.76	7.06	0.906	2.27	1.32	0.79	2.65	1.02	1.61	1.19	1.25	1.25	0.959
QFLMMYVWSAS [ABCD1_Y337_K336M]	1.53	0.873	0.931	0.426	1.22	0.807	1.58	0.465	0.912	1.46	0.541	1.27	0.779	0.929	1.03	0.543
SVVVPYQPPEV [TP53_Y220_E221Q]	0.728	0.645	0.51	0.494	0.596	0.467	0.918	0.399	0.445	0.784	0.383	1.51	0.44	0.969	0.696	0.535
IRKDLYSNNVL [ACTC1_Y296_A297S]	0.506	0.497	0.476	0.425	0.422	0.414	0.553	0.415	0.419	0.471	0.518	0.444	0.322	0.836	0.835	0.611
RENGPYYTSYP [GDAP2_Y487]	1.17	0.896	1.45	3.44	3.32	0.618	1.05	2.55	1.98	0.863	5.69	1.55	3.17	1.09	0.597	0.955
SGTYQYIIAKF [FOXL2_Y83_I80T]	1.43	4.98	1.53	3.65	2.42	2.58	1.51	0.749	2.06	1.29	5.26	1.17	0.943	0.74	0.541	0.696
HLWRIYFDITD [MMP27_Y307_YF]	1.39	1.15	0.771	0.973	1.19	0.531	1.81	0.532	0.739	1.52	0.366	1.27	0.462	0.877	0.695	0.491
GHLFAYNWISI [BEST1_Y227_D228N_YF]	0.962	0.51	0.469	1.34	1.21	4.77	1.06	0.488	0.444	0.978	0.548	0.58	0.392	0.993	1.13	0.916
MSGDVYSTDFF [NTRK2_Y702_R699G_YF]	1.08	1.02	1.32	1.42	1.18	0.775	1.06	5.33	2.4	0.959	6.82	0.736	4.62	0.701	1.15	0.526
SSEYHCVGGFY [CTSC_Y347_Y347C]	2.32	3.8	4.66	7.73	5.2	0.64	1.45	1.76	1.72	1.37	0.775	7.61	1.82	0.557	0.764	0.398
VFDHIYTTQSD [RET_Y928_L923V]	0.978	0.458	0.467	0.55	0.682	0.443	0.871	2.12	1.14	0.671	0.579	0.44	2.41	0.902	0.864	0.738
TGILLHGLASR [QARS1_Y57_Y57H]	0.417	0.28	0.328	0.367	0.379	0.218	0.629	0.281	0.301	0.488	0.419	0.528	0.469	0.783	0.801	0.593
CKLYQYYLDHL [ATRX_Y1849]	1.74	2.18	1.54	1.44	1.54	0.758	1.65	0.587	0.698	1.54	2.12	1.17	2.05	0.731	0.523	0.391
ELPQTYCVSGP [DYSF_Y1684_G1679E]	0.791	0.533	0.532	0.417	0.594	0.515	0.816	0.469	0.435	0.826	0.447	0.633	0.641	0.838	0.881	0.47
TTICKYITPME [GUCY2C_Y839_S840I]	0.99	0.485	0.466	0.558	0.56	0.417	0.873	0.418	0.469	0.728	0.421	0.56	0.458	0.73	0.598	0.661
FEGAIYRKDIG [GART_Y417_V421I]	0.868	0.442	0.464	0.478	0.743	0.446	0.769	0.524	0.506	0.617	0.451	0.515	0.477	0.903	0.71	0.563
